From publication PMC7156710

Assays:
[1] = biological target: Sox2 full length (Homo sapiens) (UniProt P48431); test: fluorescence anisotropy; conditions: 10 mM Tris-HEPES pH 7.5, 135 mM KCl, 15 mM NaCl, 1 mM DTT, 8% Ficoll, 0.05% NP-40, 0.1 mg/mL BSA; 2 nM DNA or 3 nM RNA; room temperature (stated for …)
[2] = biological target: Sox2 full length (Homo sapiens) (UniProt P48431); test: FP; conditions: 10 mM Tris-HEPES pH 7.5, 8% Ficoll, 0.05% NP-40, 135 mM KCl, 15 mM NaCl, 1 mM DTT, 0.1 mg/mL BSA; 2 nM DNA or 3 nM RNA; low values mean tight binding
[3] = biological target: Sox2-HMG (thrombin cleaved) (Homo sapiens) (UniProt P48431); test: FP; conditions: 10 mM Tris-HEPES pH 7.5, 8% Ficoll, 0.05% NP-40, 135 mM KCl, 15 mM NaCl, 1 mM DTT, 0.1 mg/mL BSA; 2 nM DNA or 3 nM RNA; low values mean tight binding
[4] = biological target: Sox2-HMG (Homo sapiens) (UniProt P48431); test: fluorescence anisotropy; conditions: 10 mM Tris-HEPES pH 7.5, 135 mM KCl, 15 mM NaCl, 1 mM DTT, 8% Ficoll, 0.05% NP-40, 0.1 mg/mL BSA; 2 nM DNA or 3 nM RNA; room temperature (stated for …)
Sox2-HMG (Homo sapiens), sequence (P48431 40-123): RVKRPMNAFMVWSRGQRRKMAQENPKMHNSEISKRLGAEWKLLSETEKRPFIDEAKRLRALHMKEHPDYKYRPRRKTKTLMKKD

Sox2 full length (Homo sapiens), sequence (P48431 whole entry): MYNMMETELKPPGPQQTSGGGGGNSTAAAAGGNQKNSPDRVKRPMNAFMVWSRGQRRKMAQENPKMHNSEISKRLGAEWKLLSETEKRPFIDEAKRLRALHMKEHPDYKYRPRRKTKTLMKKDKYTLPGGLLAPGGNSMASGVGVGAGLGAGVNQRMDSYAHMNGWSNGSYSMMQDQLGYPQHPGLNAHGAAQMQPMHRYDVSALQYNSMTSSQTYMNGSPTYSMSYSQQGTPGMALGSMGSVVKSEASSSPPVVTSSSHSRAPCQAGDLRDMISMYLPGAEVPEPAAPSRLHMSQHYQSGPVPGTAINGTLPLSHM
Sox2-HMG (thrombin cleaved) (Homo sapiens), sequence (P48431 other isoform, or with tags, fused parts or gaps): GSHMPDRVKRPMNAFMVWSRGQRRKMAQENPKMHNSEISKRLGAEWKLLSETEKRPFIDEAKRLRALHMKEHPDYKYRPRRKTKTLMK

Row | Substance | binding signal (fold weaker than FGF4) [1] | Kd [2] | Kd [3] | Kd [4]
1 | dsDNA w/o binding site | > 200 | – | – | –
2 | ssDNA with consensus site | > 200 | – | – | –
3 | GGAAGAAGUGAAAUCACUAUAUUUAGAAACGAAUGCUACCAUCCCACCCCAACUACAUGUUCAGGUUAAAUGCGUGCACAUCCUGGUAGCUGGAACAUCUGUUUCUAGCUUGUUGUUCCUCUUGGCUGCUUUUCAAUUGGAUUUCCUCGAGCAGGUCCCAGGCUUGUCACUGCAGCCAGGGUCUGUUAACCAUCACCACUGGUUCUACAUUAAGUAGGAGGUUCAGGGCUAAGCUAAUAACUCGCCUGCCUUUCUGACUGAUCACAGUGAUGUUCGCCGUGGCCACUUAUCAUGCGGGCUCCUUUGGGAGGGUGCUCUUCUUUGUCUGUACCUCUGGGUGGAAAGGGCGAAUUC [ES2 lncRNA 1-354] | – | 17.5 nM | 25.6 nM | 26 nM
